In patent US10688131B2, “Peptides and scaffolds for use in immunotherapy against head and neck squamous cell carcinoma and other cancers” (Immatics Biotechnologies GmbH, priority 2016, dated 2020):

Target: HLA-A*02:01 (Homo sapiens, UniProt P04439, D140Y/D185E/D98H/E176V/E277Q/G131W/G231S/I119V/I121R/I166T/I218V/L300P/L318F/N151K/N90K/P208A/P217A/Q86G/Q94H/R138H/R169H/T345S)
Experiment: MHC binding assay: UV-ligand exchange with β2m ELISA
Settings: binding of HLA-class I restricted peptides to HLA-A*02:01
Description: Candidate peptides for T cell based therapies according to the present invention were further tested for their MHC binding capacity (affinity). The individual peptide-MHC complexes were produced by UV-ligand exchange, where a UV-sensitive peptide is cleaved upon UV-irradiation, and exchanged with the peptide of interest as analyzed. Only peptide candidates that can effectively bind and stabilize the peptide-receptive MHC molecules prevent dissociation of the MHC complexes. To determine the yield of the exchange reaction, an ELISA was performed based on the detection of the light chain (β2m) of stabilized MHC complexes. The assay was performed as generally described in Rodenko et al. (Rodenko et al., 2006).
96 well MAXISorp plates (NUNC) were coated over night with 2 ug/ml streptavidin in PBS at room temperature, washed 4× and blocked for 1 h at 37° C. in 2% BSA containing blocking buffer. Refolded HLA-A*02:01/MLA-001 monomers served as standards, covering the range of 15-500 ng/ml. Peptide-MHC monomers of the UV-exchange reaction were diluted 100-fold in blocking buffer. Samples were incubated for 1 h at 37° C., washed four times, incubated with 2 ug/ml HRP conjugated anti-β2m for 1 h at 37° C., washed again and detected with TMB solution that is stopped with […]. Absorption was measured at 450 nm. Candidate peptides that show a high exchange yield (preferably higher than 50%, most preferred higher than 75%) are generally preferred for a generation and production of antibodies or fragments thereof, and/or T cell receptors or fragments thereof, as they show sufficient avidity to the MHC molecules and prevent dissociation of the MHC complexes.

Substance	Peptide exchange (MHC class I binding score, peptide exchange yield)
88 (LMAPAPSTV; listed as Homo sapiens) [compound 88]	+++ (>50 = +++)
38 (KLLPGVQYV; listed as Homo sapiens) [compound 38]	++++ (>75% = ++++)
66 (TLLSEIAEL; listed as Homo sapiens) [compound 66]	++++ (>75% = ++++)
56 (FLQLETEQV; listed as Homo sapiens) [compound 56]	++++ (>75% = ++++)
77 (SLRAFLMPI; listed as Homo sapiens) [compound 77]	++ (>20% = ++)
6 (ALYDAELSQM; listed as Homo sapiens) [compound 6]	+++ (>50 = +++)
81 (VLAENPDIFAV; listed as Homo sapiens) [compound 81]	+++ (>50 = +++)
89 (VLDEGLTSV; listed as Homo sapiens) [compound 89]	++++ (>75% = ++++)
48 (YLLDYPNNL; listed as Homo sapiens) [compound 48]	+++ (>50 = +++)
62 (ILSSACYTV; listed as Homo sapiens) [compound 62]	++++ (>75% = ++++)
68 (KILEMDDPRA; listed as Homo sapiens) [compound 68]	++ (>20% = ++)
84 (ALMAGCIQEA; listed as Homo sapiens) [compound 84]	++++ (>75% = ++++)
43 (AVLGGKLYV; listed as Homo sapiens) [compound 43]	++++ (>75% = ++++)
23 (SLPESGLLSV; listed as Homo sapiens) [compound 23]	+++ (>50 = +++)
7 (ALEEANADLEV; listed as Homo sapiens) [compound 7]	+++ (>50 = +++)
39 (LLPEDDTRDNV; listed as Homo sapiens) [compound 39]	+++ (>50 = +++)
37 (ILLEDVFQL; listed as Homo sapiens) [compound 37]	++++ (>75% = ++++)
85 (QLIEKITQV; listed as Homo sapiens) [compound 85]	+++ (>50 = +++)
69 (YVMESMTYL; listed as Homo sapiens) [compound 69]	++++ (>75% = ++++)
14 (RIMEGIPTV; listed as Homo sapiens) [compound 14]	++++ (>75% = ++++)
22 (KLPEPCPSTV; listed as Homo sapiens) [compound 22]	+++ (>50 = +++)

Substance	Peptide exchange (MHC class I binding score, peptide exchange yield)
41 (RLNGEGVGQVNISV; listed as Homo sapiens) [compound 41]	++ (>20% = ++)
4 (ILDINDNPPV; listed as Homo sapiens) [compound 4]	+++ (>50 = +++)
27 (YLAEPQWAV; listed as Homo sapiens) [compound 27]	++++ (>75% = ++++)
34 (ALDTFSVQV; listed as Homo sapiens) [compound 34]	++++ (>75% = ++++)
70 (FLFPAFLTA; listed as Homo sapiens) [compound 70]	++++ (>75% = ++++)
2 (PVCPPGGIQEV; listed as Homo sapiens) [compound 2]	+++ (>50 = +++)
90 (TLNDGVVVQV; listed as Homo sapiens) [compound 90]	++++ (>75% = ++++)
67 (AQLNLIWQL; listed as Homo sapiens) [compound 67]	++++ (>75% = ++++)
57 (AILGFALSEA; listed as Homo sapiens) [compound 57]	++++ (>75% = ++++)
65 (ALWGFFPVLL; listed as Homo sapiens) [compound 65]	++++ (>75% = ++++)
91 (MLFENMGAYTV; listed as Homo sapiens) [compound 91]	++++ (>75% = ++++)
80 (GLYGIKDDVFL; listed as Homo sapiens) [compound 80]	++++ (>75% = ++++)
15 (SMLNNIINL; listed as Homo sapiens) [compound 15]	+++ (>50 = +++)
60 (SLGNFKDDLL; listed as Homo sapiens) [compound 60]	+++ (>50 = +++)
79 (GLHQDFPSVVL; listed as Homo sapiens) [compound 79]	+++ (>50 = +++)
76 (ILFDEVLTFA; listed as Homo sapiens) [compound 76]	++++ (>75% = ++++)
74 (SLTSFLISL; listed as Homo sapiens) [compound 74]	+++ (>50 = +++)
21 (FLHEPFSSV; listed as Homo sapiens) [compound 21]	++++ (>75% = ++++)
87 (ALPEPSPAA; listed as Homo sapiens) [compound 87]	+++ (>50 = +++)
72 (SLDGNPLAV; listed as Homo sapiens) [compound 72]	++++ (>75% = ++++)
46 (GLISSIEAQL; listed as Homo sapiens) [compound 46]	++++ (>75% = ++++)

Substance	Peptide exchange (MHC class I binding score, peptide exchange yield)
51 (FLIPSIIFA; listed as Homo sapiens) [compound 51]	++++ (>75% = ++++)
64 (KILESLFVSL; listed as Homo sapiens) [compound 64]	+++ (>50 = +++)
58 (SLSDIQPCL; listed as Homo sapiens) [compound 58]	+++ (>50 = +++)
44 (GLGDDSFPI; listed as Homo sapiens) [compound 44]	++++ (>75% = ++++)
86 (SLQERQVFL; listed as Homo sapiens) [compound 86]	+++ (>50 = +++)
75 (ALASAPTSV; listed as Homo sapiens) [compound 75]	++++ (>75% = ++++)
25 (SLCPPGGIQEV; listed as Homo sapiens) [compound 25]	++++ (>75% = ++++)
36 (GLWSSIFSL; listed as Homo sapiens) [compound 36]	++++ (>75% = ++++)
54 (RLSGEGVGPV; listed as Homo sapiens) [compound 54]	+++ (>50 = +++)
59 (YLQNEVFGL; listed as Homo sapiens) [compound 59]	+++ (>50 = +++)
55 (VLNVGVAEV; listed as Homo sapiens) [compound 55]	+++ (>50 = +++)
9 (STASAITPSV; listed as Homo sapiens) [compound 9]	++ (>20% = ++)
31 (HLATVKLLV; listed as Homo sapiens) [compound 31]	++++ (>75% = ++++)
47 (QLLEGELETL; listed as Homo sapiens) [compound 47]	+++ (>50 = +++)
24 (LLIAINPQV; listed as Homo sapiens) [compound 24]	++++ (>75% = ++++)
73 (YIDPYKLLPL; listed as Homo sapiens) [compound 73]	+++ (>50 = +++)
78 (VLYGDVEEL; listed as Homo sapiens) [compound 78]	+++ (>50 = +++)
42 (ALYTSGHLL; listed as Homo sapiens) [compound 42]	++++ (>75% = ++++)
33 (AIYEGVGWNV; listed as Homo sapiens) [compound 33]	++++ (>75% = ++++)
63 (ALMDEINFMKM; listed as Homo sapiens) [compound 63]	++++ (>75% = ++++)
